# Laboratory results reported in patent US20050191342A1.
# Molecular target: CD20 on Daudi target cells (human) (UniProt P11836)
# Experiment: cell-based or functional assay
# Sequence of UniProt P11836 (P11836 whole entry): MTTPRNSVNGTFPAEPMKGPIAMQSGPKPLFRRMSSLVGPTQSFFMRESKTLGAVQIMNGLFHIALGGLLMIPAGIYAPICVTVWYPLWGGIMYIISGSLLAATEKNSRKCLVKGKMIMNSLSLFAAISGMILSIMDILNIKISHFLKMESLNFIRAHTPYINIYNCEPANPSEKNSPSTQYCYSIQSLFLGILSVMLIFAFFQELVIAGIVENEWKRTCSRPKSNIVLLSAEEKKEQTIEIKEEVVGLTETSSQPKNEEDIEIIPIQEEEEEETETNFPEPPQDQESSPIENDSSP
substance,measurement,value
Rituxan™ (antibody),"ADCC, Cr release from Daudi target cells",10 to 15%
